# According to patent publication US20150344570A1 (published 2015):
# T1: FcγRIIa R (human, UniProt P12318 34-217)
# T1 construct: extracellular domain; also called FcgRIIa R type; 2aR
# T1 sequence (looked up): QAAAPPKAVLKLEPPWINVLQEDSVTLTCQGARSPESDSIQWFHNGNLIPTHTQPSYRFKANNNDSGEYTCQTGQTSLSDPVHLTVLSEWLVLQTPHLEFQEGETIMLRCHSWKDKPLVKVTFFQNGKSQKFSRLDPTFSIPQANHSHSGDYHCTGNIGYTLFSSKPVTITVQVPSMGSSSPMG
# Target: T1, FcγRIIa R
# Assay: SPR (Biacore), captured antibody, FcγR as analyte; relative binding activity
row,Binder,He/Con_2aR
1,"GpH7-A5/GpH7-B3 variant K326_08L/GpL16-k0 (antibody, human IgG1, kappa, also called He Ab K326_08L) heavy 1: not shown heavy 2: not shown light: DIVMTQSPLSLPVTPGEPASISCQASESLVHSNRNTYLHWYLQKPGQSPQLLIYKVSNRFSGVPDRFSGSGSGTDFTLKISRVEAEDVGVYYCSQNTHVPPTFGQGTKVEIERTVAAPSVFIFPPSDEQLKSGTASVVCLLNNFYPREAKVQWKVDNALQSGNSQESVTEQDSKDSTYSLSSTLTLSKADYEKHKVYACEVTHQGLSSPVTKSFNRGEC",137 % (GpH7-A5/GpH7-B3/GpL16-k0 = 100)
2,"GpH7-A5/GpH7-B3 variant K334_02A/GpL16-k0 (antibody, human IgG1, kappa, also called He Ab K334_02A) heavy 1: not shown heavy 2: not shown light: DIVMTQSPLSLPVTPGEPASISCQASESLVHSNRNTYLHWYLQKPGQSPQLLIYKVSNRFSGVPDRFSGSGSGTDFTLKISRVEAEDVGVYYCSQNTHVPPTFGQGTKVEIERTVAAPSVFIFPPSDEQLKSGTASVVCLLNNFYPREAKVQWKVDNALQSGNSQESVTEQDSKDSTYSLSSTLTLSKADYEKHKVYACEVTHQGLSSPVTKSFNRGEC",105 % (GpH7-A5/GpH7-B3/GpL16-k0 = 100)
3,"GpH7-A5/GpH7-B3 variant K326_18N/GpL16-k0 (antibody, human IgG1, kappa, also called He Ab K326_18N) heavy 1: not shown heavy 2: not shown light: DIVMTQSPLSLPVTPGEPASISCQASESLVHSNRNTYLHWYLQKPGQSPQLLIYKVSNRFSGVPDRFSGSGSGTDFTLKISRVEAEDVGVYYCSQNTHVPPTFGQGTKVEIERTVAAPSVFIFPPSDEQLKSGTASVVCLLNNFYPREAKVQWKVDNALQSGNSQESVTEQDSKDSTYSLSSTLTLSKADYEKHKVYACEVTHQGLSSPVTKSFNRGEC",115 % (GpH7-A5/GpH7-B3/GpL16-k0 = 100)
4,"GpH7-A5/GpH7-B3 variant K334_10E/GpL16-k0 (antibody, human IgG1, kappa, also called He Ab K334_10E) heavy 1: not shown heavy 2: not shown light: DIVMTQSPLSLPVTPGEPASISCQASESLVHSNRNTYLHWYLQKPGQSPQLLIYKVSNRFSGVPDRFSGSGSGTDFTLKISRVEAEDVGVYYCSQNTHVPPTFGQGTKVEIERTVAAPSVFIFPPSDEQLKSGTASVVCLLNNFYPREAKVQWKVDNALQSGNSQESVTEQDSKDSTYSLSSTLTLSKADYEKHKVYACEVTHQGLSSPVTKSFNRGEC",106 % (GpH7-A5/GpH7-B3/GpL16-k0 = 100)
5,"GpH7-A5/GpH7-B3 variant K334_05P/GpL16-k0 (antibody, human IgG1, kappa, also called He Ab K334_05P) heavy 1: not shown heavy 2: not shown light: DIVMTQSPLSLPVTPGEPASISCQASESLVHSNRNTYLHWYLQKPGQSPQLLIYKVSNRFSGVPDRFSGSGSGTDFTLKISRVEAEDVGVYYCSQNTHVPPTFGQGTKVEIERTVAAPSVFIFPPSDEQLKSGTASVVCLLNNFYPREAKVQWKVDNALQSGNSQESVTEQDSKDSTYSLSSTLTLSKADYEKHKVYACEVTHQGLSSPVTKSFNRGEC",103 % (GpH7-A5/GpH7-B3/GpL16-k0 = 100)
6,"GpH7-A5/GpH7-B3 variant K326_12R/GpL16-k0 (antibody, human IgG1, kappa, also called He Ab K326_12R) heavy 1: not shown heavy 2: not shown light: DIVMTQSPLSLPVTPGEPASISCQASESLVHSNRNTYLHWYLQKPGQSPQLLIYKVSNRFSGVPDRFSGSGSGTDFTLKISRVEAEDVGVYYCSQNTHVPPTFGQGTKVEIERTVAAPSVFIFPPSDEQLKSGTASVVCLLNNFYPREAKVQWKVDNALQSGNSQESVTEQDSKDSTYSLSSTLTLSKADYEKHKVYACEVTHQGLSSPVTKSFNRGEC",103 % (GpH7-A5/GpH7-B3/GpL16-k0 = 100)
7,"GpH7-A5/GpH7-B3 variant K334_12R/GpL16-k0 (antibody, human IgG1, kappa, also called He Ab K334_12R) heavy 1: not shown heavy 2: not shown light: DIVMTQSPLSLPVTPGEPASISCQASESLVHSNRNTYLHWYLQKPGQSPQLLIYKVSNRFSGVPDRFSGSGSGTDFTLKISRVEAEDVGVYYCSQNTHVPPTFGQGTKVEIERTVAAPSVFIFPPSDEQLKSGTASVVCLLNNFYPREAKVQWKVDNALQSGNSQESVTEQDSKDSTYSLSSTLTLSKADYEKHKVYACEVTHQGLSSPVTKSFNRGEC",111 % (GpH7-A5/GpH7-B3/GpL16-k0 = 100)
8,"GpH7-A5/GpH7-B3 variant K326_15Y/GpL16-k0 (antibody, human IgG1, kappa, also called He Ab K326_15Y) heavy 1: not shown heavy 2: not shown light: DIVMTQSPLSLPVTPGEPASISCQASESLVHSNRNTYLHWYLQKPGQSPQLLIYKVSNRFSGVPDRFSGSGSGTDFTLKISRVEAEDVGVYYCSQNTHVPPTFGQGTKVEIERTVAAPSVFIFPPSDEQLKSGTASVVCLLNNFYPREAKVQWKVDNALQSGNSQESVTEQDSKDSTYSLSSTLTLSKADYEKHKVYACEVTHQGLSSPVTKSFNRGEC",136 % (GpH7-A5/GpH7-B3/GpL16-k0 = 100)
9,"GpH7-A5/GpH7-B3 variant K334_08L/GpL16-k0 (antibody, human IgG1, kappa, also called He Ab K334_08L) heavy 1: not shown heavy 2: not shown light: DIVMTQSPLSLPVTPGEPASISCQASESLVHSNRNTYLHWYLQKPGQSPQLLIYKVSNRFSGVPDRFSGSGSGTDFTLKISRVEAEDVGVYYCSQNTHVPPTFGQGTKVEIERTVAAPSVFIFPPSDEQLKSGTASVVCLLNNFYPREAKVQWKVDNALQSGNSQESVTEQDSKDSTYSLSSTLTLSKADYEKHKVYACEVTHQGLSSPVTKSFNRGEC",106 % (GpH7-A5/GpH7-B3/GpL16-k0 = 100)
10,"GpH7-A5/GpH7-B3 variant K326_20W/GpL16-k0 (antibody, human IgG1, kappa, also called He Ab K326_20W) heavy 1: not shown heavy 2: not shown light: DIVMTQSPLSLPVTPGEPASISCQASESLVHSNRNTYLHWYLQKPGQSPQLLIYKVSNRFSGVPDRFSGSGSGTDFTLKISRVEAEDVGVYYCSQNTHVPPTFGQGTKVEIERTVAAPSVFIFPPSDEQLKSGTASVVCLLNNFYPREAKVQWKVDNALQSGNSQESVTEQDSKDSTYSLSSTLTLSKADYEKHKVYACEVTHQGLSSPVTKSFNRGEC",131 % (GpH7-A5/GpH7-B3/GpL16-k0 = 100)
11,"GpH7-A5/GpH7-B3 variant K334_04F/GpL16-k0 (antibody, human IgG1, kappa, also called He Ab K334_04F) heavy 1: not shown heavy 2: not shown light: DIVMTQSPLSLPVTPGEPASISCQASESLVHSNRNTYLHWYLQKPGQSPQLLIYKVSNRFSGVPDRFSGSGSGTDFTLKISRVEAEDVGVYYCSQNTHVPPTFGQGTKVEIERTVAAPSVFIFPPSDEQLKSGTASVVCLLNNFYPREAKVQWKVDNALQSGNSQESVTEQDSKDSTYSLSSTLTLSKADYEKHKVYACEVTHQGLSSPVTKSFNRGEC",110 % (GpH7-A5/GpH7-B3/GpL16-k0 = 100)

# Results, then the binder that gave them:
row,He/Con_2aR,Binder
1,122 % (GpH7-A5/GpH7-B3/GpL16-k0 = 100),"GpH7-A5/GpH7-B3 variant L234_09D/GpL16-k0 (antibody, human IgG1, kappa, also called He Ab L234_09D) heavy 1: not shown heavy 2: not shown light: DIVMTQSPLSLPVTPGEPASISCQASESLVHSNRNTYLHWYLQKPGQSPQLLIYKVSNRFSGVPDRFSGSGSGTDFTLKISRVEAEDVGVYYCSQNTHVPPTFGQGTKVEIERTVAAPSVFIFPPSDEQLKSGTASVVCLLNNFYPREAKVQWKVDNALQSGNSQESVTEQDSKDSTYSLSSTLTLSKADYEKHKVYACEVTHQGLSSPVTKSFNRGEC"
2,104 % (GpH7-A5/GpH7-B3/GpL16-k0 = 100),"GpH7-A5/GpH7-B3 variant L234_04F/GpL16-k0 (antibody, human IgG1, kappa, also called He Ab L234_04F) heavy 1: not shown heavy 2: not shown light: DIVMTQSPLSLPVTPGEPASISCQASESLVHSNRNTYLHWYLQKPGQSPQLLIYKVSNRFSGVPDRFSGSGSGTDFTLKISRVEAEDVGVYYCSQNTHVPPTFGQGTKVEIERTVAAPSVFIFPPSDEQLKSGTASVVCLLNNFYPREAKVQWKVDNALQSGNSQESVTEQDSKDSTYSLSSTLTLSKADYEKHKVYACEVTHQGLSSPVTKSFNRGEC"
3,109 % (GpH7-A5/GpH7-B3/GpL16-k0 = 100),"GpH7-A5/GpH7-B3 variant K334_19Q/GpL16-k0 (antibody, human IgG1, kappa, also called He Ab K334_19Q) heavy 1: not shown heavy 2: not shown light: DIVMTQSPLSLPVTPGEPASISCQASESLVHSNRNTYLHWYLQKPGQSPQLLIYKVSNRFSGVPDRFSGSGSGTDFTLKISRVEAEDVGVYYCSQNTHVPPTFGQGTKVEIERTVAAPSVFIFPPSDEQLKSGTASVVCLLNNFYPREAKVQWKVDNALQSGNSQESVTEQDSKDSTYSLSSTLTLSKADYEKHKVYACEVTHQGLSSPVTKSFNRGEC"
4,109 % (GpH7-A5/GpH7-B3/GpL16-k0 = 100),"GpH7-A5/GpH7-B3 variant K334_13S/GpL16-k0 (antibody, human IgG1, kappa, also called He Ab K334_13S) heavy 1: not shown heavy 2: not shown light: DIVMTQSPLSLPVTPGEPASISCQASESLVHSNRNTYLHWYLQKPGQSPQLLIYKVSNRFSGVPDRFSGSGSGTDFTLKISRVEAEDVGVYYCSQNTHVPPTFGQGTKVEIERTVAAPSVFIFPPSDEQLKSGTASVVCLLNNFYPREAKVQWKVDNALQSGNSQESVTEQDSKDSTYSLSSTLTLSKADYEKHKVYACEVTHQGLSSPVTKSFNRGEC"
5,105 % (GpH7-A5/GpH7-B3/GpL16-k0 = 100),"GpH7-A5/GpH7-B3 variant K334_20W/GpL16-k0 (antibody, human IgG1, kappa, also called He Ab K334_20W) heavy 1: not shown heavy 2: not shown light: DIVMTQSPLSLPVTPGEPASISCQASESLVHSNRNTYLHWYLQKPGQSPQLLIYKVSNRFSGVPDRFSGSGSGTDFTLKISRVEAEDVGVYYCSQNTHVPPTFGQGTKVEIERTVAAPSVFIFPPSDEQLKSGTASVVCLLNNFYPREAKVQWKVDNALQSGNSQESVTEQDSKDSTYSLSSTLTLSKADYEKHKVYACEVTHQGLSSPVTKSFNRGEC"
